{"source": "patent US8722052B2", "about": "“Vaccinia virus protein A46 peptide and use thereof” (priority 2008, dated 2014)", "target": "T1, TLR4 (Mus musculus, UniProt Q9QUK6)", "T1 sequence (Q9QUK6 26-835)": "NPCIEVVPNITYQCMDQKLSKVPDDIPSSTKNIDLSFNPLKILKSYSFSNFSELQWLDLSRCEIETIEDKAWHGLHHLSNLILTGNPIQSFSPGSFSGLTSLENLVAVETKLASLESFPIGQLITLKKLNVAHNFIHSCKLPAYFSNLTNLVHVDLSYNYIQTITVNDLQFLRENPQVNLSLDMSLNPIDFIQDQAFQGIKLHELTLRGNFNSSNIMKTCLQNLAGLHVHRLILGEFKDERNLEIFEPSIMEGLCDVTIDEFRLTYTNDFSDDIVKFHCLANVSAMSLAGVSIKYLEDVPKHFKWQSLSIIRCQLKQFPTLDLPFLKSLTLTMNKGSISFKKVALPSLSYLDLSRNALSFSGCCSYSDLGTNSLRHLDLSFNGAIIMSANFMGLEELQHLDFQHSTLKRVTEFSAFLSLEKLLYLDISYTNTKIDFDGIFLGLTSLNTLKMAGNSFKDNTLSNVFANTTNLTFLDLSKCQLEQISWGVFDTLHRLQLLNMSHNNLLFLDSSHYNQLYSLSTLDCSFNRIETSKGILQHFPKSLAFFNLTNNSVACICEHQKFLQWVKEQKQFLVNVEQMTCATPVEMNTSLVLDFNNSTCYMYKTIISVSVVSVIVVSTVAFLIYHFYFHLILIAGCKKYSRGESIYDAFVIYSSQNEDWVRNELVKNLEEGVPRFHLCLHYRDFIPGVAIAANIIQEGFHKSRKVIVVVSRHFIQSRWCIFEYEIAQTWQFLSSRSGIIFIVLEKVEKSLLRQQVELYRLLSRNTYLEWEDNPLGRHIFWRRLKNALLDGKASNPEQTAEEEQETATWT", "T1 sequence (Q9JHF9 19-160 partner)": "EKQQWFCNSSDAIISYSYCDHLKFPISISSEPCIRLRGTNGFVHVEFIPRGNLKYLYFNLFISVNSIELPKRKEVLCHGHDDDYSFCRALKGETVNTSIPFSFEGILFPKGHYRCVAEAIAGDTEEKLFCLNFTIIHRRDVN", "experiment": "LPS-induced TNFα in RAW264.7 cells, ELISA", "assay_type": "cell-based, murine", "set-up": "endogenous in cells; host or cells: RAW264.7; immortalised murine bone-marrow-derived macrophages", "experimental": "FIGS. 5A and B are bar charts showing the dose-dependent inhibitory effect of A464R on LPS-induced TNFα in murine RAW264.7 cells. A464 (SEQ ID NO. 20) was added to the cells at a concentration of 5, 20 or 50 μM 1 hour before stimulating with 100 ng/ml LPS. Supernatant was collected 24 hours after stimulation and assayed for TNFα by ELISA (A) and cells were assayed for viability by the MTT assay (B.). No peptides were added to the control wells (black bars). Data is representative of at least three experiments each performed in triplicate and is expressed as mean±s.d;\nFIGS. 6A and B are bar charts showing the effect of peptides derived from A46 on LPS-induced TNFα in murine RAW264.7 cells. A46 peptides were added to the cells at a concentration of 1 or 5 μM 1 hour before stimulating with 10 ng/ml LPS. Supernatants were collected 6 hours after stimulation and assayed for TNFα by ELISA. No peptides were added into the control wells (black bars). (A) peptides A461-A467 (SEQ ID NO. 17 to 23). (B) peptides A468-A4614 (SEQ ID NO. 24 to 30) (excluding A4610 SEQ ID NO. 26 and A4612 SEQ ID NO. 28). Data is representative of at least two experiments each performed in triplicate and is expressed as mean±s.d;\nFIGS. 22 A and B are bar charts showing the effect of short A467 and A464 peptides, with 9R on either N- or C-terminus, on LPS- induced TNFα production in murine RAW264.7 cells. Cells were seeded in 96 well plates (1.5×10^5 cells/ml) 24 hours before treatment. Short A467 and short A464 peptides with the 9R delivery sequence on either the C-terminus (sA464C9R) (SEQ ID NO. 56) (A) or the N-terminus (sA464N9R) (SEQ ID NO. 57) (B) were added to the cells at a concentration of 5 or 25 μM 1 hour before stimulating with 10 ng/ml LPS. Normal full length A467 (SEQ ID NO. 23) and A464 (SEQ ID NO. 20) peptides were added at a concentration of 5 μM as positive controls. Supernatants were collected 6 hours after stimulation with the agonist and assayed for TNFα, by ELISA. No peptides were added to the control wells (black bars). Data is representative of at least three experiments each performed in triplicate and is expressed as mean±s.d;\nCytokine and chemokine production from cells or mouse serum was measured by ELISA using Duoset kits from R&D systems, according to the manufacturer's instructions.", "data": [{"sequence": "KYSFKLILAEYRRRRRRRRR [Peptide A464]", "values": [{"measurement": "inhibition of LPS-induced mTNFα", "setting": "peptide 1 or 5 μM 1 h before 10 ng/ml LPS, 6 h", "value": "inhibited LPS-induced mTNFα at 1 and 5 μM"}, {"measurement": "inhibition of LPS-induced murine TNFα production", "setting": "peptide 5, 20 or 50 μM 1 h before 100 ng/ml LPS, 24 h", "value": "potently inhibited LPS-induced murine TNFα production in RAW264.7 cells at just 5 μM"}]}]}
